Experimental data taken from patent publication US20130230533A1 (Regeneron, published 2013).

T1: monomeric monkey CD48 expressed with a tag consisting of 2 myc and one 6-His epitopes (monkey)
T1 construct: also called mfCD48-mmH; Monomeric monkey CD48-mmH
T1 chain: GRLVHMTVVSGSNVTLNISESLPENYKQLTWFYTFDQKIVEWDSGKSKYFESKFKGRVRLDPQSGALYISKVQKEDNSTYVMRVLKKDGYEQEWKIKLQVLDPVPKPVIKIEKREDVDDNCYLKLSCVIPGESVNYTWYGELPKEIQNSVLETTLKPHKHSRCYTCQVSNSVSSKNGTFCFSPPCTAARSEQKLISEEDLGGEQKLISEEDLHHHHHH

T2: human CD48 (on primary human peripheral blood mononuclear cells) (human, UniProt P09326 27-220)
T2 sequence: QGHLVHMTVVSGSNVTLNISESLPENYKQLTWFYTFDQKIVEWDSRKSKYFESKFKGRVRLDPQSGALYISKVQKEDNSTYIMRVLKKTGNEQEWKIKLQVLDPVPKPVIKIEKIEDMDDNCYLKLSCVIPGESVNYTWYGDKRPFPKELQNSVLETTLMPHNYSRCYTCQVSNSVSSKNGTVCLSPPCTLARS

T3: biotinylated dimeric human CD48 protein expressed as a fusion with mouse IgG2a Fc (human, biotinylated)
T3 construct: also called bio-hCD48-mFc; Dimeric human CD48-mFc
T3 chain: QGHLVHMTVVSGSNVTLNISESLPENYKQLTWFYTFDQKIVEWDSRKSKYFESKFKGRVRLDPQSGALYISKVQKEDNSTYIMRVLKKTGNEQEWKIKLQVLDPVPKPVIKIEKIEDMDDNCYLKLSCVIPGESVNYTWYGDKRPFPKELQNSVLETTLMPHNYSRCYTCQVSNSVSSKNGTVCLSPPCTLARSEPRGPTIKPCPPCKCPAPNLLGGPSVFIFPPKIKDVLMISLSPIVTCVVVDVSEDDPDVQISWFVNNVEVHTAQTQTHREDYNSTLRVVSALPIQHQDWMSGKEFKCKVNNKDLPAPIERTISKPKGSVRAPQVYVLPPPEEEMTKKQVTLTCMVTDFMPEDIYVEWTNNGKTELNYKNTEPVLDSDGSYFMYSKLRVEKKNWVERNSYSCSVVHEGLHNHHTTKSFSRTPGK

B1: H4H1774P (antibody, human IgG4, V domains shown)
VH: QVQLVESGGGVVQPGRSLRLSCAASGFTFSNYGMHWVRQAPGKGLEWVAVIWYDESSKYYTDSVKGRFTISRDNSQNTLYLQMTSLRAEDTAVYYCARDRWTYSHYFEYWGQGTLVTVSS
VL: DIQMTQSPSSVSASVGDRVTITCRASQGISSWVAWYQQKPGKAPKLLIYAASSLQSGVPSRFSGSGSGTDFTLTISSLQPEDFATYYCQQANSFPRTFGQGTKVEIK
notes: Human IgG4 Fc (H4H)
B2: H4H1713N (antibody, human IgG4, V domains shown)
VH: QVQLVQSGAEVKKPGASVKVSCKASGHTFTNYYIHWVRQAPGQGLEWMGITNPNDGNTRYAQKFQGRISMTWDTSTSTVFMELSSLKSEDTAVYYCAGLRYWFFDLWGRGTPVTVSS
VL: DIQMTQSPSSVSASVGDRVTITCRASQDISSWLAWYQQKPGKAPNLLIFAASSLQSGVPSRFSGSGSGTDFTLTISSLQPEDFGTYYCQQTDNFPRTFGQGTKVEIN
notes: Human IgG4 Fc (H4H) form of 1713N
B3: H4H1778P (antibody, human IgG4, V domains shown)
VH: QVQLVESGGGVVQPGRSLRLSCAASGFTFSNYGMHWVRQAPGKGLEWVAVIWYDESSKYYTDSVKGRFTISRDNSQNTLYLQMTSLRAEDTAVYYCARDRWTYSHYFEYWGQGTLVTVSS
VL: DIQMTQSPSSVSASVGDRVTITCRASQGISSWVAWYQQKPGKAPKLLIYAASSLQSGVPSRFSGSGSGTDFTLTISSLQPEDFATYYCQQANSFPRTFGQGTKVEIK
notes: Human IgG4 Fc (H4H)
B4: H4H1770P (antibody, human IgG4, V domains shown)
VH: QVQLVQSGAEVKKPGAAVKVSCKASGYTFTAYGISWVRQAPGQGLEWMGWISAYDGDTNNAQKFQGRVTMTTDTSSSTAYMELRSLGSDDTAVYYCARDRYSSSSGYFDYWGQGTLVTVSS
VL: DIQMTQSPSSVSASVGDRVTITCRASQDISSWLAWSQQKPGKAPKALIYAASSLQSGVPSRFSGSGSGTDFTLTISSLQPEDFATYYCQQANSFPYTFGQGTKLEIK
notes: Human IgG4 Fc (H4H)
B5: H4H1781P (antibody, human IgG4, V domains shown)
VH: QVQLVESGGGVVQPGRSLRLSCAASGFTFSNYGMHWVRQAPGKGLEWVAVIWYDDSNKNYADSVKGRFTISRDNSKNTLYLQMNSLRVEDTAVYYCARDRWTYSHFFEYWGQGTLVTVSS
VL: DIQMTQSPSSVSASVGDRVTITCRASQGISSWLAWYQQKPGKAPNLLIYAASSLQSGVPSRFGGSGSGTDFSLTISGLQPEDFATYYCQQANSFPRTFGQGTKVEIK
notes: Human IgG4 Fc (H4H)
B6: H4H1779P (antibody, human IgG4, V domains shown)
VH: QVQLVESGGGVVQPGRSLRLSCAASGFTFSNYGMHWVRQAPGKGLEWVAVIWYDESSKHYADSVKGRFTISRDNSQNTLYLQMTSLRAEDTAVYYCARDRWTYSHYFEYWGQGTLVTVSS
VL: DIQMTQSPSSVSASVGDRVTITCRASQDISSWVAWYQQKPGKAPKLLIYAASSLQSGVPSRFSGSGSGTDFTLTISSLQPEDFATYYCQQANSFPRTFGQGTKVEIK
notes: Human IgG4 Fc (H4H)
B7: H4H1763N (antibody, human IgG4, V domains shown)
VH: QIQLVQSGAEMKRPGTSVKVSCKASGYTFTSYGINWVRQAPGQGLEWMGWISAYNGDTNYAQKLQGRVTMTTDTSTTTAYMEVRSLRSDDTAVYYCARFLTGTKDYYYGMDVWGQGTTVTVSS
VL: DIQMTQSPSSLSASVGDRVTITCQASQDISNFLNWYQQKPGKAPDLLINDASILETGVPSRFSGSGSGTDFTLTINNLQPEDIATYYCQQYDNLPLTFGGGTKVEIK
notes: Human IgG4 Fc (H4H) form of 1763N
B8: H4H1771P (antibody, human IgG4, V domains shown)
VH: QVQLVQSGTEVKKPGASVKVSCKVSGYTLIDLSIHWVRQAPGEGLEWMGGFDPEESETIYAQKFQGRVTMTEDTSTDTAYMELSSLRSEDTAVYYCVTEPIFGILIHESWGQGTLVTVSS
VL: DIVMTQTPLSSPVTLGQPASISCRSSHSPVHSNGHTYLSWLQQRPGQPPRILIYKISRRFSGVPDRFSGSGAGTDFTLKISRVETEDVGIYYCMQASQFPWTFGQGTKVEIK
notes: Human IgG4 Fc (H4H)
B9: H4H1707N (antibody, V domains shown)
VH: EGQLLESGGGLAQPGGSLRLSCAASGITFGRYAMSWVRQAPGKGLEWVSLISGSGGSTYHADSVKGRFTISRDNSKNTLYLQMNSLRAEDTAVYYCAIYNNYNWFDPWGQGTLVTVSS
VL: EIVLTQSPGTLSLSPGERATLSCRASQSVSSNYLAWYQQKPGQAPRLLIYDASSRATDIPDRFSGSGSGTDFTLTISRLEPEDFAVYYCQQYGSSPRTFGQGTKVEIK
notes: Human IgG4 Fc (H4H) form of 1707N
B10: H4H1764N (antibody, human IgG4, V domains shown)
VH: QVQLVESGGGVVQPGRSLRLSCAASGFTFSDYGMHWVRQAPGKGLEWVAVIWNDGSNKNYADSVKGRFSISSDSSKNTLYLHMNSLRAEDTAVYYCARSLYSTSPWYFDLWGRGTLVTVSS
VL: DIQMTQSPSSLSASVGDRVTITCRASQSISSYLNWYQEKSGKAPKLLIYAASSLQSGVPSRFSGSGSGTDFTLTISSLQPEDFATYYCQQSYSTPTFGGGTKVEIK
notes: Human IgG4 Fc (H4H) form of 1764N

Key:
[1] = target: T1, monomeric monkey CD48 expressed with a …; test: competition ELISA; blocks mfCD48-mmH binding to coated h2B4-mFc
Description: (§1) The ability of human anti-CD48 monoclonal antibodies to block human CD48 and monkey CD48 binding to the human cognate ligand, human 2B4, was measured using a competition sandwich ELISA (Table 8). Constant amounts of biotinylated dimeric human CD48 protein expressed as a fusion with mouse IgG2a Fc (“bio-hCD48-mFc” [SEQ ID NO: 387]) or monomeric monkey CD48 expressed with a tag consisting of 2 myc and one 6-His epitopes (“mfCD48-mmH” [SEQ ID NO: 386]) were separately titrated with varying amounts of antibodies. These antibody-protein complexes were incubated (1 hr, 25° C.) before being transferred to microtiter plates coated with a dimeric construct expressing the human 2B4 receptor fused to a either human IgG1 (h2B4-hFc [R&D Systems, Inc., Minneapolis, Minn., Cat. No. 1039-2B]) or mouse IgG2a Fc (h2B4-mFc [SEQ ID NO: 389). After a 1 hr at 25° C. the wells were washed and bound human CD48 was detected with streptavidin conjugated with horse-radish peroxidase (HRP), and monkey CD48 was detected with an HRP conjugated anti-myc polyclonal antibody. The ELISA was developed with a TMB solution to produce a colorimetric reaction and quenched with sulfuric acid before reading absorbance at 450 nm on a Victor X5 plate reader. Sigmoidal dose response curves were fit to the data using Prism™ software. […] (Tables 8 and 9, NB=no binding observed)

[2] = target: T2, human CD48 (on primary human peripheral …); test: cell-based or functional assay
[3] = target: T3, biotinylated dimeric human CD48 protein …; test: competition ELISA; blocks bio-hCD48-mFc binding to coated h2B4-mFc
Description: as §1

[4] = target: T2, human CD48 (on primary human peripheral …); test: cell-based or functional assay; remark: listed apart in the source
[5] = target: T2, human CD48 (on primary human peripheral …); test: cell-based or functional assay; remark: listed apart in the source
[6] = target: T2, human CD48 (on primary human peripheral …); test: cell-based or functional assay; remark: listed apart in the source

Binder	IC50 [1] [pM]	Inhibition of IFN-gamma Release IC50; Donor 6 [2] [Molar]	Inhibition of IFN-gamma Release IC50; Donor 7 [2] [Molar]	IC50 [3] [pM]	% Blockade of IFNγ release, MLR; D1 [4] [%]	% Blockade of IFNγ release, MLR; D2 [4] [%]	% Blockade of IFNγ release, MLR; D3 [4] [%]	% Blockade of IFNγ release, MLR; D5 [4] [%]	% Blockade of IFNγ release, MLR; D6 [4] [%]	% Blockade of IFNγ release, MLR; D7 [4] [%]	% Blockade of IFNγ release, MLR; D9 [4] [%]	Inhibition of IFN-gamma Release IC50; Donor 9 [5] [Molar]	Inhibition of IFN-gamma Release IC50; Donor 11 [5] [Molar]	further results
B1	16	2.5e-11	9.5e-12	25	–	–	–	–	–	–	–	–	–	–
B2	3.4	–	–	18	–	–	–	–	–	–	–	–	–	–
B3	8.4	9.8e-12	–	56	–	–	–	–	–	–	–	–	–	–
B4	22	–	–	20	–	–	–	–	–	–	–	–	–	–
B5	8.1	3.6e-11	1.5e-11	18	–	–	–	–	–	–	–	–	–	–
B6	5.7	1.7e-12	1.5e-11	16	–	–	–	–	–	–	–	–	–	–
B7	7.2	–	–	7.4	59	89	68	63	75	48	53	9.3e-12	3.4e-12	% Blockade of IFNγ release, MLR; D4 [4]: 52%; % Blockade of IFNγ release, MLR; D8 [4]: 30%; Inhibition of IFN-gamma Release IC50; Donor 8 [5]: 8.6e-12 Molar; Inhibition of IFN-gamma Release IC50; Donor 10 [5]: 1e-12 Molar; IC50 of IFNγ release, MLR; D1 [6]: ~10 pM; IC50 of IFNγ release, MLR; D3 [6]: ~6.4 pM; IC50 of IFNγ release, MLR; D4 [6]: 210 pM; IC50 of IFNγ release, MLR; D5 [6]: ~27 pM; IC50 of IFNγ release, MLR; D6 [6]: 23 pM; IC50 of IFNγ release, MLR; D8 [6]: ~3700 pM; IC50 of IFNγ release, MLR; D9 [6]: ~4100 pM; IC50 of IFNγ release, MLR; D10 [6]: ~84 pM; IC50 of IFNγ release, MLR; D11 [6]: 73 pM; IC50 of IFNγ release, MLR; D12 [6]: ~56 pM; IC50 of IFNγ release, MLR; D13 [6]: 92 pM; IC50 of IFNγ release, MLR; D14 [6]: 63 pM; IC50 of IFNγ release, MLR; D15 [6]: ~0.059 pM; IC50 of IFNγ release, MLR; D16 [6]: 7.6 pM
B8	2.2	–	–	9.9	78	79	88	47	50	36	32	–	1.5e-11	–
B9	45	–	–	22	66	87	78	62	77	62	60	5.1e-11	–	% Blockade of IFNγ release, MLR; D4 [4]: 20%; % Blockade of IFNγ release, MLR; D8 [4]: 42%
B10	160	–	–	76	69	46	80	75	59	48	–	3.1e-11	2.3e-11	Inhibition of IFN-gamma Release IC50; Donor 8 [5]: 5.3e-12 Molar; Inhibition of IFN-gamma Release IC50; Donor 10 [5]: 5.1e-12 Molar
